24 molecules from US6872536 (BRACCO IMAGING S P A, dated 2005) can be followed below.

The target in test [1] is N-formyl-methionyl-leucyl-phenylalanine (fMLF) receptor on elicited rat peritoneal neutrophils (rat) (UniProt D4A7Q2). The test is described as follows: cell-based or functional assay.
The target is the same in test [2]. The test is described as follows: competition with 6 nM 3H-fMLF for binding to elicited rat peritoneal neutrophils, 4 C, filter harvest.
Test [3] has the same target. The test is described as follows: Scatchard transformation of the 3H-fMLF binding isotherm on elicited rat peritoneal neutrophils.
For test [4] the target is unchanged. The test is described as follows: Scatchard analysis of 3H-fMLF saturation binding to elicited rat peritoneal neutrophils.
Test [5] addresses N-formyl-methionyl-leucyl-phenylalanine (fMLF) receptor on human neutrophils (human) (UniProt P21462). The test is described as follows: competition with 6 nM 3H-fMLF for binding to human neutrophils.
The target of test [6] is N-formyl-methionyl-leucyl-phenylalanine (fMLF) receptor on elicited rat peritoneal neutrophils (rat) (UniProt D4A7Q2). The test is described as follows: saturation binding of 3H-fMLF to elicited rat peritoneal neutrophils, one-site fit (Prism).
Test [7] has as its target T1, N-formyl-methionyl-leucyl-phenylalanine (fMLF) receptor on elicited rat peritoneal neutrophils (rat, UniProt D4A7Q2 1-355).
T1 construct: Native receptor on whole neutrophils (PMNs); also called Rat FPR; formyl peptide receptor
T1 sequence: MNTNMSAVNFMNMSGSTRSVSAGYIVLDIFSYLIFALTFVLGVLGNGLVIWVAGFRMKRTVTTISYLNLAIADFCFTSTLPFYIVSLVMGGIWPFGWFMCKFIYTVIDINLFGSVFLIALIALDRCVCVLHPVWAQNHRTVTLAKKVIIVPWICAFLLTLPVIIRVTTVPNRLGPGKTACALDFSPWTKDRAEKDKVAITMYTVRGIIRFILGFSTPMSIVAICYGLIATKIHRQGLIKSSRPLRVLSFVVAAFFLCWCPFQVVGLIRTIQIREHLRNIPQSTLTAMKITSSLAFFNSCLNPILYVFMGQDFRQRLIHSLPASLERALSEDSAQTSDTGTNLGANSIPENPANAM
The test is described as follows: competition with 6 nM 3H-fMLF for binding to elicited rat peritoneal neutrophils, 4 C, filter harvest. The procedure: (§1) Neutrophils isolated by peritoneal lavage were washed twice with 1 mL of HBSS− (without calcium chloride, magnesium chloride and magnesium sulfate) and centrifuged for ten minutes at 2000 rpms following each wash. PMNs utilized in functional assays were centrifuged at 25° C. while those used in binding assays were centrifuged at 4° C. to prevent internalization. A cold H_2O RBC lysis was then performed with the addition of 9 mL of sterile ice-cold H_2O and 1 mL of phosphate buffered saline (PBS) solution containing 0.1 M phosphate buffer, 0.027 M KCl and 1.37 M NaCl following resuspension of the sample in 1 mL of HBSS−. Centrifugation was subsequently performed for ten minutes at 1600 rpms. White blood cell (WBC) differential stain containing saline, 2% acidic acid and phenol violet dye was used to identify the neutrophil population and trypan blue exclusion was used to determine viability of cells.
(§2) Total binding in the competition assays was assessed in the presence of 1.0 ×10^6 PMNs per sample while non-specific binding was determined in the absence of cells. Each condition was performed in quadruplicate.

Test [8] concerns the target T1, N-formyl-methionyl-leucyl-phenylalanine …. The test is described as follows: competition with 6 nM 3H-fMLF on elicited rat neutrophils. The procedure: as §1, §2
Test [9] addresses T2, N-formyl-methionyl-leucyl-phenylalanine (fMLF) receptor on human neutrophils (human, UniProt P21462 1-350).
T2 construct: whole, on cells; Native receptor on whole neutrophils from healthy volunteers; also called Human FPR; formyl peptide receptor
T2 sequence (looked up): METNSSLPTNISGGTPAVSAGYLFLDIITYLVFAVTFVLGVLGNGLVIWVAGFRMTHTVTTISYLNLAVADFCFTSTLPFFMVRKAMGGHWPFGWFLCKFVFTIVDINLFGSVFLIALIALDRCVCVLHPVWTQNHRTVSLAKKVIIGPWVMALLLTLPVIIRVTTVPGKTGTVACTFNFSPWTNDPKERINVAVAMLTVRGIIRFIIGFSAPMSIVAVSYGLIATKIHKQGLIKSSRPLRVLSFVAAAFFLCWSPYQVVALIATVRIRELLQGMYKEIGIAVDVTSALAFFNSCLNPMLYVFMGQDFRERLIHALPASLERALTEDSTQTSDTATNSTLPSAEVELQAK
The test is described as follows: competition with 6 nM 3H-fMLF for binding to human neutrophils.

Test [10] has as its target T1, N-formyl-methionyl-leucyl-phenylalanine …. The test is described as follows: cell-based or functional assay.

Square brackets hold non-standard residues; d marks the D form. Ends that are not written are not given here. * marks the point of attachment. dimethylgly‑t‑butylgly‑cys‑gly = CN(C)CC(=O)N[C@H](C(=O)N[C@@H](CS)C(=O)NCC(=O)*)C(C)(C)C; Cyclopropanecarbonyl = O=C(C1CC1)*; Nle = CCCC[C@H](N)C(=O)O; For = O=C* Where only a bound is given, the exact number is not on record here.

In test [1], trans-cinnamoyl-NleLFK (peptide) yielded an MPO release, % Control (1 uM) of 133 % control and an MPO release, % Control (10 uM) of 196 % control.
Usually IC50 stands for the point on the concentration scale where inhibition reaches its midpoint. A high value points to weaker potency. Take “N-tert-butyloxycarbonylated-methionyl-leucyl-phenylalanine (peptide)”: in test [2], the IC50 was found to be 9300 nM.
With 2-quinoxazoyl-NleLFK (peptide), in test [1], the % Control MPO Release (10 uM capping group + 0.1 uM fMLF) turned out to be 240 % control; the % Control MPO release (1 uM capping group + 0.1 uM fMLF) worked out at 323 % control; the MPO release, % Control (1 uM) came out at 117 % control; the MPO release, % Control (10 uM) stood at 130 % control.
For “N-phenyl-N-methylcarbamoyl-NleLFK (peptide)”, in test [1], the % Control MPO Release (10 uM capping group + 0.1 uM fMLF) came to 121 % control; the % Control MPO release (1 uM capping group + 0.1 uM fMLF) is 171 % control; the MPO release, % Control (1 uM) was found to be 94.7 % control; the MPO release, % Control (10 uM) is 68 % control.
In test [1], cyclopropylcarbonyl-NleLFK (peptide) had an MPO release, % Control (1 uM) of 108 % control and an MPO release, % Control (10 uM) of 91.8 % control.
Regarding adamantylcarbonyl-NleLFK (peptide), in test [1], the % Control MPO Release (10 uM capping group + 0.1 uM fMLF) was found to be 129 % control; the % Control MPO release (1 uM capping group + 0.1 uM fMLF) stood at 132 % control; the MPO release, % Control (1 uM) stood at 70.5 % control; the MPO release, % Control (10 uM) was 71.7 % control.
In test [1], 3-but-1-enoxycarbonyl-NleLFK (peptide) gave an MPO release, % Control (1 uM) of 134 % control and an MPO release, % Control (10 uM) of 229 % control.
In [1], phenylthioacetyl-NleLFK (peptide) had an MPO release, % Control (1 uM) of 139 % control and an MPO release, % Control (10 uM) of 120 % control.
For 2-methoxyacetyl-NleLFK (peptide), in [1], the MPO release, % Control (1 uM) worked out at 95 % control and the MPO release, % Control (10 uM) was 97.1 % control.
Take N,N-diphenylcarbamoyl-NleLFK (peptide): in [1], the % Control MPO Release (10 uM capping group + 0.1 uM fMLF) worked out at 186 % control; the % Control MPO release (1 uM capping group + 0.1 uM fMLF) was determined as 322 % control; the MPO release, % Control (1 uM) was determined as 143 % control; the MPO release, % Control (10 uM) is 125 % control.
In test [1], “2-acetamido-5-thiazolesulfonyl-NleLFK (peptide)” showed an MPO release, % Control (1 uM) of 118 % control and an MPO release, % Control (10 uM) of 176 % control.
In test [1], furoyl-NleLFK (peptide) yielded an MPO release, % Control (1 uM) of 93 % control and an MPO release, % Control (10 uM) of 102 % control.
Regarding N,N-diethylcarbamoyl-NleLFK (peptide), in [1], the % Control MPO Release (10 uM capping group + 0.1 uM fMLF) amounted to 250 % control; the % Control MPO release (1 uM capping group + 0.1 uM fMLF) worked out at 283 % control; the MPO release, % Control (1 uM) came to 114 % control; the MPO release, % Control (10 uM) was found to be 110 % control.
“fluorenylmethylcarbonyl-NleLFK (peptide)”: in [1], the % Control MPO Release (10 uM capping group + 0.1 uM fMLF) was 109 % control; the % Control MPO release (1 uM capping group + 0.1 uM fMLF) was determined as 162 % control; the MPO release, % Control (1 uM) was found to be 84.1 % control; the MPO release, % Control (10 uM) stood at 59.9 % control.
As a reminder, the Kd is the equilibrium constant for the complex coming apart. Low readings indicate higher affinity, high ones lower affinity. Turning to “N-formyl-methionyl-leucyl-phenylalanine (peptide)”, in test [2], the IC50 was 50 nM. Further, the x-intercept of Scatchard transformation in test [3] is 34. In test [4], this molecule came in with a Kd of 6.4 nM and a binding sites per cell (binding sites per cell) of 41000. Also, the IC50 in [5] stood at 5 nM. In test [6], this molecule registered a Binding Sites/Cell (binding sites/cell) of 40000 and a Kd of 6.1 nM. Moreover, the EC50 of myeloperoxidase release from elicited rat PMNs in test [1] is 110 nM.

B1: ReO-CyclopropylCONH-nleu-leu-phe-trp-his-lys(dimethylgly-t-butylgly-cys-gly)-gly-OH (peptide)
peptide: Cyclopropanecarbonyl-[Nle]LFWHK(dimethylgly‑t‑butylgly‑cys‑gly)G-OH
modifications: also: ReO (rhenium oxo) complex with Lys6 side-chain chelator
notes: Rhenium complex as tested; also called ReORP553 17-04; RP553-17-04
For the molecule B1, the IC50 in test [7] was determined as 1770 nM. Further, the “fold more potent than N-t-BocMLF” value in test [8] was at least 1.5 fold.

B2: ReO-CyclopropylCONH-nleu-leu-phe-tyr-his-lys(dimethylgly-t-butylgly-cys-gly)-gly-OH (peptide)
peptide: Cyclopropanecarbonyl-[Nle]LFYHK(dimethylgly‑t‑butylgly‑cys‑gly)G-OH
modifications: also: ReO (rhenium oxo) complex with Lys6 side-chain chelator
notes: Rhenium complex as tested; also called ReORP553 17-06; RP553-17-06
In test [7], B2 came in with an IC50 of 1220 nM. Also, the “fold more potent than N-t-BocMLF” value in test [8] was at least 1.5 fold.

B3: ReO-CyclopropylCONH-nleu-leu-phe-ser-his-lys(dimethylgly-t-butylgly-cys-gly)-gly-OH (peptide)
peptide: Cyclopropanecarbonyl-[Nle]LFSHK(dimethylgly‑t‑butylgly‑cys‑gly)G-OH
modifications: also: ReO (rhenium oxo) complex with Lys6 side-chain chelator
notes: Rhenium complex as tested; also called ReORP553 17-05; RP553-17-05
As to B3, the IC50 in [7] is 1010 nM. In addition, the “fold more potent than N-t-BocMLF” value in [8] was at least 1.5 fold.

B4: ReO-CyclopropylCONH-nleu-leu-phe-tyr-lys-lys(dimethylgly-t-butylgly-cys-gly)-gly-OH (peptide)
peptide: Cyclopropanecarbonyl-[Nle]LFYKK(dimethylgly‑t‑butylgly‑cys‑gly)G-OH
modifications: also: ReO (rhenium oxo) complex with Lys6 side-chain chelator
notes: Rhenium complex as tested; also called ReORP553 17-09; RP553-17-09
Turning to B4, in [7], the IC50 came to 5930 nM. In addition, in [8], the “fold more potent than N-t-BocMLF” value was at least 1.5 fold.

B5: ReO-CyclopropylCONH-nleu-leu-phe-trp-glu-lys(dimethylgly-t-butylgly-cys-gly)-gly-OH (peptide)
peptide: Cyclopropanecarbonyl-[Nle]LFWEK(dimethylgly‑t‑butylgly‑cys‑gly)G-OH
modifications: also: ReO (rhenium oxo) complex with Lys6 side-chain chelator
notes: Rhenium complex as tested; also called ReORP553 17-01; RP553-17-01
In the case of B5, the IC50 in test [7] came out at 730 nM. Further, in test [8], the “fold greater binding affinity than N-t-BocMLF” value is about 12 fold, the “fold less binding affinity than fMLF” value was about 15 fold and the “fold more potent than N-t-BocMLF” value was at least 1.5 fold. Also, in [9], the IC50 is 140 nM.

B6: ReO-CyclopropylCONH-nleu-leu-phe-ser-lys-lys(dimethylgly-t-butylgly-cys-gly)-gly-OH (peptide)
peptide: Cyclopropanecarbonyl-[Nle]LFSKK(dimethylgly‑t‑butylgly‑cys‑gly)G-OH
modifications: also: ReO (rhenium oxo) complex with Lys6 side-chain chelator
notes: Rhenium complex as tested; also called ReORP553 17-08; RP553-17-08
The molecule B6 registered an IC50 in [7] of 4950 nM. For the same molecule, the “fold more potent than N-t-BocMLF” value in test [8] was at least 1.5 fold.

B7: ReO-CyclopropylCONH-nleu-leu-phe-trp-lys-lys(dimethylgly-t-butylgly-cys-gly)-gly-OH (peptide)
peptide: Cyclopropanecarbonyl-[Nle]LFWKK(dimethylgly‑t‑butylgly‑cys‑gly)G-OH
modifications: also: ReO (rhenium oxo) complex with Lys6 side-chain chelator
notes: Rhenium complex as tested; also called ReORP553 17-07; RP553-17-07
For B7, in test [7], the IC50 stood at 760 nM. Further, the “fold more potent than N-t-BocMLF” value in test [8] was at least 1.5 fold.

B8: ReO-CyclopropylCONH-nleu-leu-phe-ser-glu-lys(dimethylgly-t-butylgly-cys-gly)-gly-OH (peptide)
peptide: Cyclopropanecarbonyl-[Nle]LFSEKG-OH
modifications: not fully specified (residue 6); printed as ReO-CyclopropylCONH-nleu-leu-phe-ser-glu-lys(dimethylgly-t-butylgly-cys-gly)-gly-OH; also: ReO (rhenium oxo) complex on the side-chain chelate
notes: Rhenium complex as tested; also called ReORP553 17-02; RP553-17-02
B8: the IC50 in test [7] was 2310 nM. The “fold more potent than N-t-BocMLF” value in test [8] is at least 1.5 fold.
Turning to For-MLFK [N-formyl-methionyl-leucyl-phenylalanyl-lysine], the “EC50 of myeloperoxidase release from elicited rat PMNs” value in [10] amounted to 140 nM.
